Laboratory results as given in the RNAGym collection of RNA variant scans (doi:10.7554/elife.80360).

B1: HDV Ribozyme (parent)
chain: GGCCGGCAUGGUCCCAGCCUCCUCGCUGGCGCCGGCUGGGCAACAUUCCGAGGGGACCGUCCCCUCGGUAAUGGCGAAUGGGACCCA

Variants of: B1
Assay: self-cleavage, relative activity (ratio to wild type); higher = more cleavage; co-transcriptional

Variant	self-cleavage
GGCCGGCAUGGUCCCAGCCUCCUCGCUGGCGCCGGCUGGGCAACAUUCCGAGGGGACCGUCCCCUCGGUGAUGGAGAAUGGGACCCA	0.201
GGCCGGCAUGGUCCCAGCCUCCUCGCUGGCGCCGGCUGGGCAACAUUCCGAGGGGACCGUCCCCUCGGUCAAGGCGAAUGGGACCCA	0.653
GGCCGGCAUGGUCCCAGCCUCCUCGCUGGCGCCGGCUGGGCAACAUUCCGAGGGGACCGUCCCCUCGGUCAGGGCGAAUGGGACCCA	0.185
GGCCGGCAUGGUCCCAGCCUCCUCGCUGGCGCCGGCUGGGCAACAUUCCGAGGGGACCGUCCCCUCGGGAAUGGCGAAUGGAACCCA	0.453
GGCCGGCAUGGUCCCAGCCUCCUCGCUGGCGCCGGCUGGGCAACAUUCCGAGGGGACCGUCCCCUCGGUCAUGGCGAAGGGGACCCA	0.554
GGCCGGCAUGGUCCCAGCCUCCUCGCUGGCGCCGGCUGGGCAACAUUCCGAGGGGACCGUCCCCUCGGUCAUGGCGAAAGGGACCCA	0.72
GGCCGGCAUGGUCCCAGCCUCCUCGCUGGCGCCGGCUGGGCAACAUUCCGAGGGGACCGUCCCCUCGGUCAUGGCGAAUGGGACUCA	1.07
GGCCGGCAUGGUCCCAGCCUCCUCGCUGGCGCCGGCUGGGCAACAUUCCGAGGGGACCGUCCCCUCGGUCAUGGCGAAUGGGACGCA	1.2
GGCCGGCAUGGUCCCAGCCUCCUCGCUGGCGCCGGCUGGGCAACAUUCCGAGGGGACCGUCCCCUCGGUGAUGGCGAAUGGAACCCA	0.394
GGCCGGCAUGGUCCCAGCCUCCUCGCUGGCGCCGGCUGGGCAACAUUCCGAGGGGACCGUCCCCUCGGUGAUGGCGAAUGGGACCCC	0.883
GGCCGGCAUGGUCCCAGCCUCCUCGCUGGCGCCGGCUGGGCAACAUUCCGAGGGGACCGUCCCCUCGGUGAUGGCGAAUGGGACCCU	0.928
GGCCGGCAUGGUCCCAGCCUCCUCGCUGGCGCCGGCUGGGCAACAUUCCGAGGGGACCGUCCCCUCGGGAAUAGCGAAUGGGACCCA	0.746
GGCCGGCAUGGUCCCAGCCUCCUCGCUGGCGCCGGCUGGGCAACAUUCCGAGGGGACCGUCCCCUCGGGAAUCGCGAAUGGGACCCA	0.665
GGCCGGCAUGGUCCCAGCCUCCUCGCUGGCGCCGGCUGGGCAACAUUCCGAGGGGACCGUCCCCUCGGUCAUGGCGAAUGGGAACCA	0.646
GGCCGGCAUGGUCCCAGCCUCCUCGCUGGCGCCGGCUGGGCAACAUUCCGAGGGGACCGUCCCCUCGGUCAUGGCGAAUGGGAUCCA	0.594
GGCCGGCAUGGUCCCAGCCUCCUCGCUGGCGCCGGCUGGGCAACAUUCCGAGGGGACCGUCCCCUCGGGAAUGGCGAAUGGGACGCA	1.01
GGCCGGCAUGGUCCCAGCCUCCUCGCUGGCGCCGGCUGGGCAACAUUCCGAGGGGACCGUCCCCUCGGGAAUGGCGAAUGGGACACA	1.18
GGCCGGCAUGGUCCCAGCCUCCUCGCUGGCGCCGGCUGGGCAACAUUCCGAGGGGACCGUCCCCUCGGUCAUGGCGAAUGAGACCCA	0.453
GGCCGGCAUGGUCCCAGCCUCCUCGCUGGCGCCGGCUGGGCAACAUUCCGAGGGGACCGUCCCCUCGGUCAUGGCGAAUGUGACCCA	0.249
GGCCGGCAUGGUCCCAGCCUCCUCGCUGGCGCCGGCUGGGCAACAUUCCGAGGGGACCGUCCCCUCGGUGAUGGCGAAUGUGACCCA	0.0978
GGCCGGCAUGGUCCCAGCCUCCUCGCUGGCGCCGGCUGGGCAACAUUCCGAGGGGACCGUCCCCUCGGUGAUGGCGAAUGAGACCCA	0.378
GGCCGGCAUGGUCCCAGCCUCCUCGCUGGCGCCGGCUGGGCAACAUUCCGAGGGGACCGUCCCCUCGGUCAUGGUGAAUGGGACCCA	0.0875

Variant	self-cleavage
GGCCGGCAUGGUCCCAGCCUCCUCGCUGGCGCCGGCUGGGCAACAUUCCGAGGGGACCGUCCCCUCGGUCAUGGGGAAUGGGACCCA	0.0615
GGCCGGCAUGGUCCCAGCCUCCUCGCUGGCGCCGGCUGGGCAACAUUCCGAGGGGACCGUCCCCUCGGUCAUGGCGAAUGGAACCCA	0.181
GGCCGGCAUGGUCCCAGCCUCCUCGCUGGCGCCGGCUGGGCAACAUUCCGAGGGGACCGUCCCCUCGGUCAUGGCGAAUGGCACCCA	0
GGCCGGCAUGGUCCCAGCCUCCUCGCUGGCGCCGGCUGGGCAACAUUCCGAGGGGACCGUCCCCUCGGGAAGGGCGAAUGGGACCCA	0.997
GGCCGGCAUGGUCCCAGCCUCCUCGCUGGCGCCGGCUGGGCAACAUUCCGAGGGGACCGUCCCCUCGGUGAUGGCGAAUGGGAACCA	0.853
GGCCGGCAUGGUCCCAGCCUCCUCGCUGGCGCCGGCUGGGCAACAUUCCGAGGGGACCGUCCCCUCGGGAAUGGCAAAUGGGACCCA	0.855
GGCCGGCAUGGUCCCAGCCUCCUCGCUGGCGCCGGCUGGGCAACAUUCCGAGGGGACCGUCCCCUCGGUGAUGGCGUAUGGGACCCA	0.426
GGCCGGCAUGGUCCCAGCCUCCUCGCUGGCGCCGGCUGGGCAACAUUCCGAGGGGACCGUCCCCUCGGUGAUGGCGCAUGGGACCCA	0.178
GGCCGGCAUGGUCCCAGCCUCCUCGCUGGCGCCGGCUGGGCAACAUUCCGAGGGGACCGUCCCCUCGGUGAUUGCGAAUGGGACCCA	0.138
GGCCGGCAUGGUCCCAGCCUCCUCGCUGGCGCCGGCUGGGCAACAUUCCGAGGGGACCGUCCCCUCGGUGAUAGCGAAUGGGACCCA	0.432
GGCCGGCAUGGUCCCAGCCUCCUCGCUGGCGCCGGCUGGGCAACAUUCCGAGGGGACCGUCCCCUCGGGAAUGCCGAAUGGGACCCA	0.383
GGCCGGCAUGGUCCCAGCCUCCUCGCUGGCGCCGGCUGGGCAACAUUCCGAGGGGACCGUCCCCUCGGUCAUGCCGAAUGGGACCCA	0.262
GGCCGGCAUGGUCCCAGCCUCCUCGCUGGCGCCGGCUGGGCAACAUUCCGAGGGGACCGUCCCCUCGGUCAUGACGAAUGGGACCCA	0.308
GGCCGGCAUGGUCCCAGCCUCCUCGCUGGCGCCGGCUGGGCAACAUUCCGAGGGGACCGUCCCCUCGGUGAUGGCGAGUGGGACCCA	0.655
GGCCGGCAUGGUCCCAGCCUCCUCGCUGGCGCCGGCUGGGCAACAUUCCGAGGGGACCGUCCCCUCGGUGAUGGCGACUGGGACCCA	0.151
GGCCGGCAUGGUCCCAGCCUCCUCGCUGGCGCCGGCUGGGCAACAUUCCGAGGGGACCGUCCCCUCGGUGAUGGCGAAUGGGGCCCA	0.692
GGCCGGCAUGGUCCCAGCCUCCUCGCUGGCGCCGGCUGGGCAACAUUCCGAGGGGACCGUCCCCUCGGUGAUGGCGAAUGGGUCCCA	0.511
GGCCGGCAUGGUCCCAGCCUCCUCGCUGGCGCCGGCUGGGCAACAUUCCGAGGGGACCGUCCCCUCGGUCAUGGCGCAUGGGACCCA	0.244
GGCCGGCAUGGUCCCAGCCUCCUCGCUGGCGCCGGCUGGGCAACAUUCCGAGGGGACCGUCCCCUCGGUCAUGGCGGAUGGGACCCA	0.808
GGCCGGCAUGGUCCCAGCCUCCUCGCUGGCGCCGGCUGGGCAACAUUCCGAGGGGACCGUCCCCUCGGUCAUGGCGAAUGGGACCCU	1.04
GGCCGGCAUGGUCCCAGCCUCCUCGCUGGCGCCGGCUGGGCAACAUUCCGAGGGGACCGUCCCCUCGGUCAUGGCGAAUGGGACCCC	0.831
GGCCGGCAUGGUCCCAGCCUCCUCGCUGGCGCCGGCUGGGCAACAUUCCGAGGGGACCGUCCCCUCGGUCAUGGCGAAUGGGACCCG	0.858

Variant	self-cleavage
GGCCGGCAUGGUCCCAGCCUCCUCGCUGGCGCCGGCUGGGCAACAUUCCGAGGGGACCGUCCCCUCGGUCAUGGCGAAUGGGGCCCA	0.543
GGCCGGCAUGGUCCCAGCCUCCUCGCUGGCGCCGGCUGGGCAACAUUCCGAGGGGACCGUCCCCUCGGUCAUGGCGAAUGGGCCCCA	0.434
GGCCGGCAUGGUCCCAGCCUCCUCGCUGGCGCCGGCUGGGCAACAUUCCGAGGGGACCGUCCCCUCGGUCAUGGCGAAUGGGACCGA	1.35
GGCCGGCAUGGUCCCAGCCUCCUCGCUGGCGCCGGCUGGGCAACAUUCCGAGGGGACCGUCCCCUCGGUCAUAGCGAAUGGGACCCA	0.407
GGCCGGCAUGGUCCCAGCCUCCUCGCUGGCGCCGGCUGGGCAACAUUCCGAGGGGACCGUCCCCUCGGUCAUCGCGAAUGGGACCCA	0.514
GGCCGGCAUGGUCCCAGCCUCCUCGCUGGCGCCGGCUGGGCAACAUUCCGAGGGGACCGUCCCCUCGGUCAUUGCGAAUGGGACCCA	0.302
GGCCGGCAUGGUCCCAGCCUCCUCGCUGGCGCCGGCUGGGCAACAUUCCGAGGGGACCGUCCCCUCGGUGAUGGCGAAUGGGACCAA	0.743
GGCCGGCAUGGUCCCAGCCUCCUCGCUGGCGCCGGCUGGGCAACAUUCCGAGGGGACCGUCCCCUCGGUGAUGGCUAAUGGGACCCA	0.997
GGCCGGCAUGGUCCCAGCCUCCUCGCUGGCGCCGGCUGGGCAACAUUCCGAGGGGACCGUCCCCUCGGUGAUGGCCAAUGGGACCCA	0.956
GGCCGGCAUGGUCCCAGCCUCCUCGCUGGCGCCGGCUGGGCAACAUUCCGAGGGGACCGUCCCCUCGGUGAUGGCGAAUGGGACCCA	0.969
GGCCGGCAUGGUCCCAGCCUCCUCGCUGGCGCCGGCUGGGCAACAUUCCGAGGGGACCGUCCCCUCGGUCAUGGCGAAUGGGACCCA	0.894
GGCCGGCAUGGUCCCAGCCUCCUCGCUGGCGCCGGCUGGGCAACAUUCCGAGGGGACCGUCCCCUCGGUCAUGGCAAAUGGGACCCA	0.96
GGCCGGCAUGGUCCCAGCCUCCUCGCUGGCGCCGGCUGGGCAACAUUCCGAGGGGACCGUCCCCUCGGUCAUGGCCAAUGGGACCCA	0.796
GGCCGGCAUGGUCCCAGCCUCCUCGCUGGCGCCGGCUGGGCAACAUUCCGAGGGGACCGUCCCCUCGGUGAUGGCGAAUGGGACGCA	0.831
GGCCGGCAUGGUCCCAGCCUCCUCGCUGGCGCCGGCUGGGCAACAUUCCGAGGGGACCGUCCCCUCGGGAAUGGCGAAUUGGACCCA	0.31
GGCCGGCAUGGUCCCAGCCUCCUCGCUGGCGCCGGCUGGGCAACAUUCCGAGGGGACCGUCCCCUCGGGAAUGGCGAAUAGGACCCA	0.233
GGCCGGCAUGGUCCCAGCCUCCUCGCUGGCGCCGGCUGGGCAACAUUCCGAGGGGACCGUCCCCUCGGUCAUGGCGACUGGGACCCA	0.208
GGCCGGCAUGGUCCCAGCCUCCUCGCUGGCGCCGGCUGGGCAACAUUCCGAGGGGACCGUCCCCUCGGGAAUGGCGAAAGGGACCCA	0.935
GGCCGGCAUGGUCCCAGCCUCCUCGCUGGCGCCGGCUGGGCAACAUUCCGAGGGGACCGUCCCCUCGGGAAUGGCGAAUGCGACCCA	0.101
GGCCGGCAUGGUCCCAGCCUCCUCGCUGGCGCCGGCUGGGCAACAUUCCGAGGGGACCGUCCCCUCGGGAAUGGCGAAUGUGACCCA	0.374
